This note sets out measurements from publication PMC5667555.

The target in the assay is ARTS-VN (UniProt O43236). In words: split reporter.

Take “Bcl-2delBH3-VC (from UniProt P10415 1-239) (natural protein)”: the percent decrease of the BiFC signal compared to WT Bcl-2 amounted to 47%.
